Measured values as given in the supplement of paper PMC12042874.
± gives the uncertainty stated by the source.

Assay: amyloid nucleation score (Sup35N fusion, yeast selection) (log enrichment); library NNK2; higher = more nucleation; inactive = no reads after selection
How it was run: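 The nucleation score, computed with DiMSum, is the log enrichment of output over input reads, centred on the mode score of non-aggregating sequences. Sequences with under 100 input reads were dropped. Reads were generated by Illumina sequencing of plasmid inserts from psi-negative yeast with Sup35N fused to peptides of 20 random codons, induced with 100 μM copper sulfate for 24 hours and grown 7 days at 30°C on medium lacking adenine and uracil.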

Row | Substance | amyloid nucleation score
1 | HVAESHMS | 1.16 ± 0.43
2 | HVGVHSNFLQIS | -1.34 ± 1
3 | HVLSLGAGWKYVGVDECKE | 0.317 ± 0.31
4 | HVNGL | 0.098 ± 0.5
5 | HVVMFS | -0.38 ± 0.76
6 | HWTSFKSGNALGMCETI | 0.076 ± 0.41
7 | HYCVIEKRSHIG | -0.739 ± 0.64
8 | HYFRIAIL | -0.667 ± 0.45
9 | HYITKFSYDLGRKAKALVLS | -0.626 ± 0.54
10 | HYLPT | -0.208 ± 0.35
11 | HYRSFVDFITGWLVSFATEP | 4.28 ± 0.054
12 | IAACLFYNRSVNIFTGVDGL | 4.09 ± 0.14
13 | IACYMMGLRLL | -0.414 ± 0.41
14 | IADIVEHCCAVRVCALGGLM | 0.393 ± 0.8
15 | IAGLTISSAISGSWDVVKPS | 4.38 ± 0.052
16 | IAHCCFGQF | 7.634 ± 0.074
17 | IAIRFIDDYCGFRGV | 0.288 ± 0.8
18 | IATHHTDESAG | -0.083 ± 0.79
19 | ICCGVEHWYVIGFNVGSFYF | 7.964 ± 0.039
20 | ICFGGTLSWSCVVAILNLSN | 5.616 ± 0.027
21 | ICISGAFNVTAHLKLAQASL | 0.295 ± 1
22 | ICLVLCRGSDA | 0.554 ± 0.74
23 | ICSSYALGQSTETG | -0.559 ± 0.76
24 | ICTALGGWWSKEVMSADMFL | 0.811 ± 0.67
25 | ICVRERNRSYRMPFMMFVVR | -0.017 ± 1

Row | Substance | amyloid nucleation score
26 | IDDCVKGKTPGNSGNMFCLP | -1.06 ± 0.42
27 | IDDDHLEHEVNGSRRCKMRW | -0.055 ± 1.1
28 | IDFLM | -0.744 ± 0.39
29 | IDGYIQGFHGIRLEQLGGVE | 0.152 ± 0.48
30 | IDHYLVLASLDW | -0.41 ± 0.47
31 | IDILWVRVNAFLSVVEIRSN | 0.949 ± 0.15
32 | IDLMKLCFLLYSIGFFLPTH | inactive
33 | IDRGTFVLGFYRYKYNYFFK | inactive
34 | IDSSGEYIVLRGYMYMRFRL | -0.72 ± 0.4
35 | IDSYLNTSKASRVPCDLRAL | 0.67 ± 0.81
36 | IEGQGLIVCNGDCTGRPNLR | 1.69 ± 0.39
37 | IEGREGCARDNKGYYTALLL | inactive
38 | IEVFDIWCPAGFVMEALRFV | 4.28 ± 0.099
39 | IEYRNMLMLSCFNKYMDCLN | 4.45 ± 0.055
40 | IFCADMVLNFGGMCPARERA | 0.038 ± 0.8
41 | IFCWL | 3.51 ± 0.047
42 | IFDQVNSRYRYAVGYGKW | inactive
43 | IFNVKRGILVTSVFDNVQVW | inactive
44 | IFNVRRVLHFIIYVSDIPLD | -1.89 ± 0.78
45 | IFNWECMDAFFSLK | inactive
46 | IFPEL | -1.11 ± 0.45
47 | IFSEGSTSSGSFGTKL | -1.6 ± 0.61
48 | IFVGVNCIQKISKRYGWYLC | 0.214 ± 0.77
49 | IFVNILNWLSVVRSSGFGSV | inactive
50 | IFWVVEFWIYYTSFLSWETR | 0.455 ± 0.51

Row | Substance | amyloid nucleation score
51 | IFYKPVFSLFVIGSRMNGGI | 7.29 ± 0.054
52 | IGESLRYIRRVILSMIFHLA | 1.18 ± 0.66
53 | IGIAKYLREGRSSPTESL | -0.5 ± 0.33
54 | IGISYCSRRVIFHGTRKTHS | -0.034 ± 0.28
55 | IGLHVWHLSLKGSSDLSGTV | 1.85 ± 0.12
56 | IGLYGNANPMTGVHSHLLCG | -0.088 ± 0.54
57 | IGMCLILRNPYIVLSDRWSS | 0.308 ± 0.39
58 | IGMSHRSQACESFKVKCPTY | 1.66 ± 0.2
59 | IGTGLDADTSM | 1.44 ± 0.16
60 | IGTNSGAINSVSHGLLAGYG | 1.24 ± 0.47
61 | IGVLISVGNLSYSTYSSRFI | 5.87 ± 0.062
62 | IHCRCVADCSRS | -0.097 ± 0.76
63 | IHDELSRCRC | -0.611 ± 0.63
64 | IHRGFILADTLHHYCSGLLI | -0.199 ± 0.65
65 | IHSSVGYMKTVPKLDDS | 0.207 ± 0.34
66 | IHWNKIMRFTFKYGILLYPS | -0.525 ± 1.1
67 | IIDNYNYMF | -0.963 ± 1.1
68 | IIEPYVHGVWKFHRFYLKSA | -0.701 ± 0.55
69 | IIHSLARFIC | -0.594 ± 0.26
70 | IIHTWLWTHRSIR | -0.406 ± 0.5
71 | IIIIATEHK | 3.48 ± 0.16
72 | IIKLRFFWYYNLLNQYLGFR | inactive
73 | IIMLYEYHLITGTMNAMHRV | inactive
74 | IINSANM | 0.736 ± 0.74
75 | IIPCRSLFAFNMMVM | 0.288 ± 0.53

Row | Substance | amyloid nucleation score
76 | IIRTTSNRPTPLRCSPNLSM | -0.779 ± 0.33
77 | IISYEVWSPQQGDLNSHHCL | inactive
78 | IITMLGQEWAFGKLFDPLTL | 0.524 ± 0.34
79 | IIVFV | 0.086 ± 0.74
80 | IIYYWAPLVITMEFQERRVR | 6.395 ± 0.038
81 | IKCKKKYRSYWNRG | -0.27 ± 0.46
82 | IKDMTKVIATGFCLCITLVC | 0.592 ± 0.66
83 | IKERGLCRWMYARFKGKSAI | inactive
84 | IKHDLSTFNNFSPVSWNMVY | -0.307 ± 0.79
85 | IKNSRNVLLMPLLANHWHNS | -0.58 ± 0.63
86 | IKVNCIEYYHSLRSRFDTSA | 0.065 ± 1.1
87 | IKVYSTVYQVSCLLRLMLLM | -1.24 ± 0.64
88 | ILANCGCCSNFSFYQMGEKY | 8.279 ± 0.047
89 | ILFLVNLFSLSIANVFR | inactive
90 | ILGVRYVSCSGSLGNWAQRG | 4.87 ± 0.098
91 | ILIIRLKFLVIVAITSTGSD | inactive
92 | ILIKIKRWSFRFPFGFGKLD | inactive
93 | ILILVLIECLILWFCYTMCI | 3.16 ± 0.049
94 | ILLINCMFNQYSGC | 7.894 ± 0.075
95 | ILLISVCYRNIVYISSSLMG | -0.172 ± 0.21
96 | ILLRMTITCMFTPYHAERRG | 4.61 ± 0.07
97 | ILLVYTLHRCLSSRVNEYQM | 4.22 ± 0.052
98 | ILNCVMYLICKYVFII | 2.16 ± 0.14
99 | ILRECFIFSHRKTHLLKFWL | -0.622 ± 1.1
100 | ILRFEAIYFEIMPHVYKVVK | -0.409 ± 0.38

Row | Substance | amyloid nucleation score
101 | ILRVSGDAERSILFCPCLAI | -0.255 ± 0.25
102 | ILRYSFCRMLFAPRVTLIRF | 1.74 ± 0.25
103 | ILSCRYHNYSQQLVK | inactive
104 | ILSLIYGA | -0.084 ± 0.54
105 | ILTWVAHILLP | 3.72 ± 0.072
106 | ILVMKFNSWLADEDRVRSVI | 1.21 ± 0.27
107 | ILWNYIYDKSFGITPDGFV | -0.398 ± 1
108 | ILYGGSPSLYVYAYTKN | 4.35 ± 0.11
109 | ILYVACSNMRCPILFMAGA | 2.12 ± 0.12
110 | IMEYAPLYFIMF | 4.16 ± 0.069
111 | IMVRVIAFNVL | 6.864 ± 0.041
112 | INCRFMVCWA | 9 ± 0.052
113 | INCSAFNHCIYSSPT | 2.82 ± 0.082
114 | INGWEPSIIDVIYNAHQIGP | 0.107 ± 0.79
115 | INLNNFLVLLLCKHRVVWKQ | 1.48 ± 0.2
116 | INLYRSVGPKKWYTGEVLMA | -0.137 ± 1.1
117 | INSPSYDNILMSTSSANMKR | inactive
118 | INSVFNGIGRVYRHW | -0.554 ± 1
119 | INVFGGHLMSYMKSISRVVC | -1.13 ± 0.64
120 | INWSHRGIISLDERMIIQYV | 0.154 ± 0.65
121 | IPCTTSCVVQFCVTYWLDN | 6.419 ± 0.029
122 | IPFLAVACLGDQWDD | 0.304 ± 0.18
123 | IPGSS | -0.137 ± 0.54
124 | IPMHPLCGVRRNTELRVVEW | 1.78 ± 0.25
125 | IPNYLSYTWILYNYTFLGAC | 0.719 ± 0.38

Row | Substance | amyloid nucleation score
126 | IPSRAVVPFFLDLRPHADVS | 0.25 ± 0.46
127 | IQEVRVACCWLIFRGCIRTA | 4.1 ± 0.12
128 | IQINLLNSGYSFRLRASKFS | 2.89 ± 0.075
129 | IQSNAQESHNSNICESYNND | -1.02 ± 0.62
130 | IQTNVYWGISCCVSLSLSGL | 9.549 ± 0.022
131 | IQVLVLPISYISIRGQKWRN | 7.19 ± 0.08
132 | IRCCVQFIQLSQGNNVWVRS | 6.07 ± 0.081
133 | IRDFYILAYRWLSQSHVMAN | inactive
134 | IRESGVYTNLYSVVRVEEKT | 0.012 ± 0.38
135 | IRFDFSC | 1.51 ± 0.17
136 | IRLLCHAVENCGTQRRLWGL | 0.329 ± 0.6
137 | IRLVHSNVEIWGSDLVFHRG | 6.196 ± 0.04
138 | IRMEFCDAMTICLLKQR | 3.72 ± 0.056
139 | IRNQWMQVSQVFSVSRAVET | 0.369 ± 0.3
140 | IRRGTYNFLMFQKDSFEYVS | 0.536 ± 0.62
141 | IRSFVSIRMFVCGRSDLRSN | -0.22 ± 1.1
142 | IRWCF | 5.34 ± 0.09
143 | ISCSKMRRFWHL | 0.587 ± 0.29
144 | ISERKCCKVLYISAIRVLNF | 0.034 ± 1.1
145 | ISFWGFYRFRYDMCRRVSDR | -1.34 ± 0.78
146 | ISGSRWRLGAIVGTVVEAFG | -0.049 ± 0.76
147 | ISINTICSNVDIGYGVAVFH | 3.92 ± 0.071
148 | ISIVPYYNLGIGGRVTGSEA | 0.012 ± 0.3
149 | ISLNLVVN | -0.272 ± 0.8
150 | ISLSHWGQTIPLRSFLLNRL | 0.432 ± 0.53

Row | Substance | amyloid nucleation score
151 | ISSEHNAWYEVA | inactive
152 | ISTYSMYACFKMSL | 4.88 ± 0.1
153 | ISVGGLSHMGTVGSLMKVTQ | -0.023 ± 0.29
154 | ISVRPAQSASRPCLDLWLKA | 1.55 ± 0.36
155 | ISWTPSGAIVVS | inactive
156 | ISWVLRCQSKSRWLIQ | 0.627 ± 0.57
157 | ITACCRSR | 3.02 ± 0.062
158 | ITDGLYLTWGFDP | 0.931 ± 0.74
159 | ITFFLRDMIAC | -0.907 ± 1
160 | ITGKTGVCSNNYTLKILGIV | -0.826 ± 0.33
161 | ITIFTSWPVIMLETVMCYCN | 5.32 ± 0.079
162 | ITMSQNSWNFRHDGTLVGLK | 0.377 ± 0.3
163 | ITPFHT | -0.448 ± 0.3
164 | ITQRHSVNLNMMSLDLYTSS | 0.295 ± 1
165 | ITRSGWDFYLS | 0.687 ± 0.49
166 | ITSFKWVLKGSWCKGRESKF | 4.87 ± 0.068
167 | IVARHPIGFQLVWGHWLTVA | 0.412 ± 0.26
168 | IVCLAVSLSSDRTE | 6.599 ± 0.04
169 | IVDHVYCIVILDLEHFFYNE | 5.02 ± 0.083
170 | IVFSDLTITF | 3.29 ± 0.11
